Results: publication PMC9332313, “Folding and Binding Mechanisms of the SH2 Domain from Crkl” (Biomolecules, 2022)
Square brackets hold non-standard residues; d marks the D form. Ends that are not written are not given here. * marks the point of attachment. pY = N[C@@H](Cc1ccc(OP(=O)(O)O)cc1)C(=O)O; Dansyl = CN(C)c1cccc2c(S(=O)(=O)*)cccc12

Molecular target: T1, SH2 domain of Crkl protein (residues 1-111), H33A variant (UniProt P46109 1-111, H33A)
T1 construct: Crkl adaptor protein, SH2 domain, residues 1-111, His33 replaced by alanine; Site-directed mutant of m1 (QuikChange); source: E. coli BL21 (DE3), purified (HisTrap nickel column, desalting); not shown: His tag, N-terminal, kept
Test: stopped-flow fluorescence kinetics (FRET); dansyl-Pax112-123 constant at 2 μM mixed with Crkl-SH2 2 to 10 μM (pseudo-first-order, kon); koff by displacement of the preincubated 2 µM complex with excess non-dansylated Pax112-123 (30 μM); 283 K; 50 mM BisTRIS pH 6.0, 0.5 M NaCl
Conditions: both partners purified

T1 sequence (P46109 1-111 H33A): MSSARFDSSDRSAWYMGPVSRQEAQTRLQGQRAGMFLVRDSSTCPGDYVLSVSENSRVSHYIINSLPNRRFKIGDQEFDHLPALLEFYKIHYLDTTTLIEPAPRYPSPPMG

B1: dansylated Pax_(112–123) peptide (Dans-GEEEHV-pY-SFPNK) (peptide)
peptide: Dansyl-GEEEHV[pY]SFPNK
notes: The dansyl group is the FRET acceptor of Trp14 of the SH2 domain; source: synthetic peptide, bought: GenScript
  Kd: 3.3 ± 0.2 µM
  koff: 19.5 ± 0.4 s⁻¹
  kon: 5.9e+06 ± 300000 M⁻¹ s⁻¹
